Tests used:
human BCMA [1] = target: T1, human BCMA (human, UniProt Q02223 1-184); experiment: flow cytometry, NCI-H929 cells
T1 construct: whole, on cells; the cell line is named under assay; also called TNFRSF17; CD269
T1 sequence (looked up): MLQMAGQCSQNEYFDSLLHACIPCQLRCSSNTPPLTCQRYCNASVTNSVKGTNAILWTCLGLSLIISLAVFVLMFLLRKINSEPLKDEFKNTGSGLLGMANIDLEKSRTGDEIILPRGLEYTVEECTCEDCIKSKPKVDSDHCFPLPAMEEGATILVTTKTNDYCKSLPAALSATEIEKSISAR

human BCMA [2] = target: T1, human BCMA; experiment: flow cytometry, HEK293T/hBCMA cells
human BCMA [3] = target: T1, human BCMA; experiment: cell-based or functional assay
cynomolgus monkey BCMA = target: T2, cynomolgus monkey BCMA (cynomolgus monkey); experiment: flow cytometry, HEK293T/cyno BCMA cells
T2 construct: whole, on cells; also called cyno BCMA; HEK293T/cyno BCMA cells

[4] = target: T3, biotinylated human BCMA-Fc, Avitag recombinant protein (ACRO Biosystems, #BC7-H82F0) (human, UniProt Q02223 1-54, biotinylated); experiment: BLI (Octet Red96e), biotinylated BCMA-Fc on SA sensor, antibody in solution, 1:1 global fit
T3 construct: extracellular domain; Bought protein; also called human BCMA protein; recombinant human BCMA-ECD-Fc; not shown: Fc of the bought fusion protein; Avitag
T3 sequence (looked up): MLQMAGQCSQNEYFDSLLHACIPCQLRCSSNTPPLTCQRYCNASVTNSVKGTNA

[5] = target: T4, human PD-L1-His protein (ACRO Biosystems, #PD1-H5229) (human, UniProt Q9NZQ7 19-238); experiment: ELISA, coated hPD-L1-His
T4 construct: extracellular domain; bought; also called hPDL1-His; human PD-L1 extracellular domain recombinant protein
T4 sequence (Q9NZQ7 19-238): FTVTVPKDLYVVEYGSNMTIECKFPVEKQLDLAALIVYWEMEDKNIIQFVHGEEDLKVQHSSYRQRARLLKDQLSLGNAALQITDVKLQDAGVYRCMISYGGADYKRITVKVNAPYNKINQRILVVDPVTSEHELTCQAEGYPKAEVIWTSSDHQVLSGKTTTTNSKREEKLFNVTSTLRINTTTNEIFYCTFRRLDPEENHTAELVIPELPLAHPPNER

[6] = target: T5, human PD-L1 on cells (CHO-K1/hPDL1; MDA-MB-231) (human, UniProt Q9NZQ7 19-290); experiment: competition FACS: biotinylated PD-1 to CHO-K1/hPDL1 cells (Experiment 1)
T5 construct: whole, on cells
T5 sequence (Q9NZQ7 19-290): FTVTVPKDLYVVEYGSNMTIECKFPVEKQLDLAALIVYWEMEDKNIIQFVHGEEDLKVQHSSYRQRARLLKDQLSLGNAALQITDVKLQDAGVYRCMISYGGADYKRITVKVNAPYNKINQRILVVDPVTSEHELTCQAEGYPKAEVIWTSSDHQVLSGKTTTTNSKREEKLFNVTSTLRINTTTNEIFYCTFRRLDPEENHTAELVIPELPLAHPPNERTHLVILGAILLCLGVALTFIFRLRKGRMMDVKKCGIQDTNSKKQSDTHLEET

[7] = target: T6, human CTLA4 on cells (CHO-K1/hCTLA4; HEK293/hCTLA4; 293F-hCTLA4) (human, UniProt P16410 36-223); experiment: cell-based or functional assay
T6 sequence (P16410 36-223): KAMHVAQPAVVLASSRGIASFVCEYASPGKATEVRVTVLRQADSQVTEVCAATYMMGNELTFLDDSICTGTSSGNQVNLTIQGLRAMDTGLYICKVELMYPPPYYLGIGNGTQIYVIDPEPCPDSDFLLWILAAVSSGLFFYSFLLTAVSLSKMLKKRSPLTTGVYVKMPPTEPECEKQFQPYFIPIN

[8] = target: T7, human CTLA4-His protein (ACRO Biosystems, #CT4-H5229) (human, UniProt P16410 36-161); experiment: ELISA, coated hCTLA4-His
T7 construct: extracellular domain; bought; also called hCTLA4-His; human CTLA4 extracellular domain recombinant protein
T7 sequence (P16410 36-161): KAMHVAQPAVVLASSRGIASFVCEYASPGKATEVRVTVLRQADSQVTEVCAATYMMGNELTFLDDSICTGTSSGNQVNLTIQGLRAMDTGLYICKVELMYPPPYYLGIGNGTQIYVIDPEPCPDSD

[9] = target: T5, human PD-L1 on cells (CHO-K1/hPDL1; …); experiment: FACS, CHO-K1/hPDL1 cells (Experiment 1)
[10] = target: T8, biotinylated human CTLA4-Fc protein (ACRO Biosystems, #CT4-H82F3) (human, UniProt P16410 36-161, biotinylated); experiment: competition ELISA: biotinylated hCTLA4-Fc to coated B7-1-Fc
T8 construct: bought; also called human CTLA4 protein
T8 sequence (P16410 36-161 limits assumed): as the sequence (P16410 36-161) above

[11] = target: T6, human CTLA4 on cells (CHO-K1/hCTLA4; …); experiment: FACS, CHO-K1/hCTLA4 cells (Test 1)
[12] = target: T6, human CTLA4 on cells (CHO-K1/hCTLA4; …); experiment: competition FACS: biotinylated B7-1-Fc to CHO-K1/hCTLA4 cells (Test 1)
[13] = target: T6, human CTLA4 on cells (CHO-K1/hCTLA4; …); experiment: FACS, HEK293/hCTLA4 cells
[14] = target: T6, human CTLA4 on cells (CHO-K1/hCTLA4; …); experiment: competition FACS: biotinylated B7-1-Fc to CHO-K1/hCTLA4 cells (Test 2)
[15] = target: T6, human CTLA4 on cells (CHO-K1/hCTLA4; …); experiment: FACS, CHO-K1/hCTLA4 cells (Test 2)
[16] = target: T5, human PD-L1 on cells (CHO-K1/hPDL1; …); experiment: FACS, MDA-MB-231 cells

B1: PR001046, anti-BCMA HCAb antibody, clone 1005P63B7 (antibody, human IgG1, V domains shown)
VH: EVQLVETGGGLIQPGGSLRLSCAASGFTVSDNYMTWVRQAPGKGLEWVSVIFSGGNTYYADSVKGRFTISRDNAKNTLYLQMNSLRAEDTALYYCARRNYDDTRGTDVFDIWGQGTMVTVSS
notes: Heavy-chain-only antibody (HCAb), human IgG1 Fc, no light chain
EC50 (human BCMA [1]): 1.53 nM
Maximum MFI (human BCMA [1]): 133000
EC50 (human BCMA [2]): 0.213 nM
Maximum MFI (human BCMA [2]): 63400
EC50 (nM), target cell killing mediated by antibody internalization (HEK293T/hBCMA cells, a-hFc-MMAF) (human BCMA [3]): 0.571 nM
Maximum killing rate (%), target cell killing mediated by antibody internalization (HEK293T/hBCMA cells, a-hFc-MMAF) (human BCMA [3]): 71.2%
EC50 (cynomolgus monkey BCMA): 0.564 nM
Maximum MFI (cynomolgus monkey BCMA): 67700
Kd [4]: 0.0253 nM
koff [4]: 1.07e-05 s⁻¹
kon [4]: 423000 M⁻¹ s⁻¹

B2: PR000301 (bispecific antibody, human IgG1, kappa)
chain: EVQLVESGGGLIQPGGSLRLSCAVSGFTVSKNYMSWVRQAPGKGLEWVSVVYSGGSKTYADSVKGRFTISRDNSKNTLYLQMNSLRAEDTAVYYCARAVPHSPSSFDIWGQGTMVTVSSKLEPKSSDKTHTPPPPPRTDIQMTQSPSTLSASVGDRVTVTCRASQSIYIWLAWYQQKPGKAPNLLIYKASSLETGVPSRFSGSGSGTEFTLTISSLQPDDFATYYCQQYYGSSRTFGQGTKVEIKRTVAAPSVFIFPPSDEQLKSGTASVVCLLNNFYPREAKVQWKVDNALQSGNSQESVTEQDSKDSTYSLSSTLTLSKADYEKHKVYACEVTHQGLSSPVTKSFNRGEC
heavy: not shown
EC50 [5]: 0.131 nM
Maximum OD450 [5]: 3.53 OD450
IC50 [6]: 0.882 nM
Maximum inhibition rate (%) [6]: 96.2%
ADCC killing of 293F-hCTLA4 cells, EC50 [7]: 0.031 nM
ADCC killing of 293F-hCTLA4 cells, Maximum killing rate (%) [7]: 36.6%
EC50 [8]: 0.35 nM
Maximum OD450 [8]: 2.92 OD450
EC50 [9]: 0.918 nM
Maximum MFI [9]: 16600 MFI
IC50 [10]: 2.51 nM
Maximum inhibition rate (%) [10]: 98.3%
EC50 [11]: 1.94 nM
Maximum MFI [11]: 2360 MFI
IC50 [12]: 3.21 nM
Maximum inhibition rate (%) [12]: 99.9%

B3: PR000274, anti-BCMA monoclonal antibody CA8-J6M0 (antibody, human IgG1, kappa, V domains shown)
VH: QVQLVQSGAEVKKPGSSVKVSCKASGGTFSNYWMHWVRQAPGQGLEWMGATYRGHSDTYYNQKFKGRVTITADKSTSTAYMELSSLRSEDTAVYYCARGAIYDGYDVLDNWGQGTLVTVSS
VL: DIQMTQSPSSLSASVGDRVTITCSASQDISNYLNWYQQKPGKAPKLLIYYTSNLHSGVPSRFSGSGSGTDFTLTISSLQPEDFATYYCQQYRKLPWTFGQGTKLEIKR
notes: Control antibody; also called Positive control 1; CA8-J6M0 hIgG1
EC50 (human BCMA [1]): 10.8 nM
Maximum MFI (human BCMA [1]): 125000
EC50 (human BCMA [2]): 4.08 nM
Maximum MFI (human BCMA [2]): 86500
EC50 (nM), target cell killing mediated by antibody internalization (HEK293T/hBCMA cells, a-hFc-MMAF) (human BCMA [3]): 2.18 nM
Maximum killing rate (%), target cell killing mediated by antibody internalization (HEK293T/hBCMA cells, a-hFc-MMAF) (human BCMA [3]): 77.2%
EC50 (cynomolgus monkey BCMA): 4.56 nM
Maximum MFI (cynomolgus monkey BCMA): 116000

B4: PR000943, anti-BCMA HCAb antibody, clone 1005P16A10 (antibody, human IgG1, V domains shown)
VH: EVQLVETGGGLIQPGGSLRLSCAASGFPVSSNYMSWVRQAPGKGLEWVSVIFSGGRTYYADSVKGRFTISRDNSKNTLYLQMNSLRAEDTAVYYCARRNWIDGRDAFDIWGQGTMVTVSS
notes: as for B1
EC50 (human BCMA [1]): 4.8 nM
Maximum MFI (human BCMA [1]): 166000
EC50 (human BCMA [2]): 0.153 nM
Maximum MFI (human BCMA [2]): 70000
EC50 (nM), target cell killing mediated by antibody internalization (HEK293T/hBCMA cells, a-hFc-MMAF) (human BCMA [3]): 0.492 nM
Maximum killing rate (%), target cell killing mediated by antibody internalization (HEK293T/hBCMA cells, a-hFc-MMAF) (human BCMA [3]): 78.7%
EC50 (cynomolgus monkey BCMA): 0.329 nM
Maximum MFI (cynomolgus monkey BCMA): 64000
Kd [4]: 0.162 nM
koff [4]: 1.93e-05 s⁻¹
kon [4]: 119000 M⁻¹ s⁻¹

B5: PR001035, anti-BCMA HCAb antibody, clone 1005P36F3 (antibody, human IgG1, V domains shown)
VH: EVQLVETGGGLIQPGGSLRLSCAASGFTVSSNYMTWVRQAPGKGLEWVSVIFSGGSTYYADSVKGRFTISRDNSKNTLYLQMNSLRAEDTAVYYCARRIAVAGHDVFDIWGQGTMVTVSS
notes: as for B1
EC50 (human BCMA [1]): 1.19 nM
Maximum MFI (human BCMA [1]): 113000
EC50 (human BCMA [2]): 0.336 nM
Maximum MFI (human BCMA [2]): 39800
Maximum MFI (cynomolgus monkey BCMA): 10800
Kd [4]: 0.276 nM
koff [4]: 8.98e-05 s⁻¹
kon [4]: 325000 M⁻¹ s⁻¹

B6: PR000184, anti-CTLA4 heavy-chain antibody CL5v3, hIgG1 (antibody, V domains shown)
VH: EVQLVESGGGLIQPGGSLRLSCAVSGFTVSKNYMSWVRQAPGKGLEWVSVVYSGGSKTYADSVKGRFTISRDNSKNTLYLQMNSLRAEDTAVYYCARAVPHSPSSFDIWGQGTMVTVSS
notes: heavy-chain-only antibody (VH-Fc dimer); also called anti-CTLA4 HCAb monoclonal antibody PR000184
EC50 [13]: 1.15 nM
Maximum MFI [13]: 2260 MFI
ADCC killing of 293F-hCTLA4 cells, EC50 [7]: 0.015 nM
ADCC killing of 293F-hCTLA4 cells, Maximum killing rate (%) [7]: 30.2%
IC50 [14]: 3.01 nM
Maximum inhibition rate (%) [14]: 100%
EC50 [8]: 0.599 nM
Maximum OD450 [8]: 3.01 OD450
IC50 [10]: 2.67 nM
Maximum inhibition rate (%) [10]: 97.2%
EC50 [11]: 1.69 nM
Maximum MFI [11]: 1670 MFI
EC50 [15]: 4.64 nM
Maximum MFI [15]: 722 MFI
IC50 [12]: 4.13 nM
Maximum inhibition rate (%) [12]: 99.7%

B7: PR000300 (bispecific antibody, human IgG1, kappa)
light: DIQMTQSPSTLSASVGDRVTVTCRASQSIYIWLAWYQQKPGKAPNLLIYKASSLETGVPSRFSGSGSGTEFTLTISSLQPDDFATYYCQQYYGSSRTFGQGTKVEIKRTVAAPSVFIFPPSDEQLKSGTASVVCLLNNFYPREAKVQWKVDNALQSGNSQESVTEQDSKDSTYSLSSTLTLSKADYEKHKVYACEVTHQGLSSPVTKSFNRGEC
chain: not shown
notes: PR000070 + VH of PR000184
EC50 [5]: 0.108 nM
Maximum OD450 [5]: 3.52 OD450
IC50 [6]: 0.677 nM
Maximum inhibition rate (%) [6]: 96.6%
ADCC killing of 293F-hCTLA4 cells, EC50 [7]: 0.008 nM
ADCC killing of 293F-hCTLA4 cells, Maximum killing rate (%) [7]: 23.8%
EC50 [8]: 0.567 nM
Maximum OD450 [8]: 2.95 OD450
EC50 [9]: 0.884 nM
Maximum MFI [9]: 21000 MFI
IC50 [10]: 2.09 nM
Maximum inhibition rate (%) [10]: 98.2%
EC50 [11]: 2.91 nM
Maximum MFI [11]: 2620 MFI
IC50 [12]: 6.42 nM
Maximum inhibition rate (%) [12]: 101%

B8: PR000265, anti-PD-L1 91G3H5H3(D54E), hIgG1(N297A) (antibody)
heavy: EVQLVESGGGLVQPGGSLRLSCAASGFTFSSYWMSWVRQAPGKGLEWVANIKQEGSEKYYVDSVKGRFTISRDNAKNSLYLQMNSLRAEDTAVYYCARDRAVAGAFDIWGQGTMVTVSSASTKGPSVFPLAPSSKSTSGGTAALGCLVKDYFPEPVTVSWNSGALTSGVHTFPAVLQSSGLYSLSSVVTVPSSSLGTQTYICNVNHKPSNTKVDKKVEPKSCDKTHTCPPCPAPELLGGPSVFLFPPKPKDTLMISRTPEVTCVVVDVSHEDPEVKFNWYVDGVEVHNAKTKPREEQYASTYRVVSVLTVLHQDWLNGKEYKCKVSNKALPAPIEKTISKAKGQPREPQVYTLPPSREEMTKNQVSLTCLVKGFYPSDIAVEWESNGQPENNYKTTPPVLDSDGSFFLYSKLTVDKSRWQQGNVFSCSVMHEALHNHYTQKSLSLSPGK
light: DIQMTQSPSTLSASVGDRVTVTCRASQSIYIWLAWYQQKPGKAPNLLIYKASSLETGVPSRFSGSGSGTEFTLTISSLQPDDFATYYCQQYYGSSRTFGQGTKVEIKRTVAAPSVFIFPPSDEQLKSGTASVVCLLNNFYPREAKVQWKVDNALQSGNSQESVTEQDSKDSTYSLSSTLTLSKADYEKHKVYACEVTHQGLSSPVTKSFNRGEC
EC50 [16]: 0.163 nM
Maximum MFI [16]: 958 MFI

— US20230322953A1 (HARBOUR BIOMED SHANGHAI, published 2023)
